Results taken from patent US20090047211A1.

Assays:
[1] = target: mesothelin-Fc fusion protein (extracellular domain of human mesothelin fused with rabbit IgG Fc) (rabbit; human) (UniProt Q13421); assay: Biacore, affinity to mesothelin-Fc in solution
[2] = target: mesothelin-Fc fusion protein (extracellular domain of human mesothelin fused with rabbit IgG Fc) (rabbit; human) (UniProt Q13421); assay: Western blot on SDS-denatured mesothelin-Fc, MAb 1 µg/ml
[3] = target: mesothelin (native, on mesothelin-expressing human cells and in mesothelioma tissue) (human) (UniProt Q13421); assay: flow cytometry on H226 cells, MAb 1 µg/ml, PE-labeled anti-mouse IgG; details: scale: log geometric mean of fluorescence intensity
[4] = target: mesothelin-Fc fusion protein (extracellular domain of human mesothelin fused with rabbit IgG Fc) (rabbit; human) (UniProt Q13421); assay: ELISA on plates coated with mesothelin-Fc, HRP-labeled anti-mouse IgG
[5] = target: mesothelin-Fc fusion protein (extracellular domain of human mesothelin fused with rabbit IgG Fc) (rabbit; human) (UniProt Q13421); assay: ELISA on mesothelin-Fc (summary of Table 1)
[6] = target: mesothelin-Fc fusion protein (extracellular domain of human mesothelin fused with rabbit IgG Fc) (rabbit; human) (UniProt Q13421); assay: Western blot on SDS-denatured mesothelin-Fc
[7] = target: mesothelin-Fc fusion protein (extracellular domain of human mesothelin fused with rabbit IgG Fc) (rabbit; human) (UniProt Q13421); assay: Western blot on mesothelin-Fc (summary of Table 1)

Kd [1] | minimum amount of mesothelin-Fc detected in Western blot [2] | FACS reactivity to H226 cells (log geometric mean of fluorescence intensity) [3] | amount of MAb that showed OD450 = 0.5 in ELISA [4] | fold reactivity in ELISA against the K1 and 5B2 antibodies [5] | fold sensitivity in Western blot against MAbs K1 and 5B2 [6] | fold sensitivity in Western blot against the K1 and 5B2 antibodies [7] | Molecule
12 nM | 25 ng | 2.5 | 1000 ng/mL |  |  |  | MAb K1 (antibody)
0.6 nM | 2 ng | 3.3 | 1.9 ng/mL | 500 fold | 10 fold | 12 fold | MAb MB (antibody, IgG2a, V domains shown) VH: EVKLVESGGGLVQPGGSLSLSCAASGFTFTDYYMSWVRQPPGRALEWLGFIRGKANGYTTEYSASVKGRFTISRDYSQSILYLHMNALRAEDSATYSCARYYYSNYVWYFDVWGTGTTVTVSS VL: DIVMTQSQKFMSTSVGDRVSVTCKASQNVGTNVAWYQQKPGLSPKVLIHSASYRFSGVPDRFTGSGSGTDFTLSISNVQSEDLAKYFCQQYNSYPLTFGAGTKLELKR
1 nM | 2 ng | 3.5 | 1.1 ng/mL | 500 fold | 10 fold | 12 fold | MAb MN (antibody, IgG2a, V domains shown) VH: QVQLQQPGAELVKPGASMKLSCKASGYTFTSYWMHWVKQRPGQGLEWIGMIHPNSDNTIYYEKFKSKATLTVDKSSSTAYMQLSSLTSEDSAVYYCAIIITPVVPKFDYWGQGTTLTVSS VL: DIVMTQSHQFMSTSVGDRVSVTCKASHDVGTSVAWYQQKPGQSPKLLIYWASTRHTGVPDRFTGSGSGTDFTLTISNVQSEDLADYFCQQYSSYPLTFGAGTKLELKR
